Tests used:
293T cells = experiment: Cell viability of 293T cell lines treated with Inhibitor of Telomerase I (crystal violet); type: cell-based, human; settings: 24.2 vs pLNCX 293T cells, inhibitor 0-20 μM, 72 hours
Protocol: FIG. 6.—Cell viability and telomerase activity of the 293T cell lines: pLNCX and 24.2 treated with the Inhibitor of telomerase I. A) Cell viability. After seeding the 293T cells: pLNCX and 24.2 in 24-well plates, they were incubated with concentrations between 0-20 μM of the Inhibitor of Telomerase I. The cell viability was measured by means of the crystal violet technique after 72 hours of exposure to the drug. The data represent the mean of two experiments performed in quadruplicate. B) Telomerase activity at different doses of the Inhibitor of Telomerase I. Telomerase activity of the 293T cells: 24.2 and pLNCX in the presence of different concentrations of the inhibitor of telomerase I (5-7 μM) for 3 days. The cells were seeded in 60-mm plates and subsequently treated at the specified concentrations and times.
The effect of GSE 24.2 in response to the inhibitor of telomerase I was studied. To this end, a viability curve was performed wherein the pLNCX and 24.2 cell lines were treated with increasing concentrations of the inhibitor of telomerase I (0-20 μM) for 72 hours. […]
Growth curves. […] The number of cells was determined by estimating the absorbance at 595 nm. […]

telomerase = telomerase (Homo sapiens, UniProt O14746); experiment: Telomerase activity (TRAP) of 293T cell lines treated with cisplatin; type: cell-based; design: endogenous in cells; host or cells: 293T cells stably transfected with empty pLNCX or pLNCX 24.2; settings: pre-treated 0.5 μg/ml 3 days, then 3 μg/ml cisplatin for 7 days
Protocol: FIG. 5.—Telomerase activity of the 293T cell lines: pLNCX and 24.2 following treatment with cisplatin. The cells were seeded in 60-mm plates, pre-treated with 0.5 μg/ml of cisplatin for 3 days and subsequently treated with cisplatin at a dose of 3 μg/ml […]. The telomerase activity was measured by means of the Intergen TRAPeze assay. The experiment was performed 3 times, with similar results.
To this end, an assay of telomerase activity was performed using the TRAP method with the pLNCX and pLNCX 24.2 cell lines (FIG. 5), pre-treating them for 3 days with 0.5 μg/ml of cisplatin; subsequently, they were treated with 3 μg/ml of cisplatin for 3 and 7 days. […]
Telomerase activity assay based on the TRAP method Wright et al., 1995). The telomerase activity was measured using the TRAPeze telomerase detection kit (Intergen) in accordance with the instruction manual. The protein concentration of each extract was quantified by means of the Bradford method using the BIORAD reagent and after performing a PCR in accordance with the manual instructions; polyacrylamide gel electrophoresis was performed with the reaction products under non-denaturing conditions and, subsequently, it was stained with Ethidium bromide for 30 minutes.

telomerase, sequence (O14746 whole entry): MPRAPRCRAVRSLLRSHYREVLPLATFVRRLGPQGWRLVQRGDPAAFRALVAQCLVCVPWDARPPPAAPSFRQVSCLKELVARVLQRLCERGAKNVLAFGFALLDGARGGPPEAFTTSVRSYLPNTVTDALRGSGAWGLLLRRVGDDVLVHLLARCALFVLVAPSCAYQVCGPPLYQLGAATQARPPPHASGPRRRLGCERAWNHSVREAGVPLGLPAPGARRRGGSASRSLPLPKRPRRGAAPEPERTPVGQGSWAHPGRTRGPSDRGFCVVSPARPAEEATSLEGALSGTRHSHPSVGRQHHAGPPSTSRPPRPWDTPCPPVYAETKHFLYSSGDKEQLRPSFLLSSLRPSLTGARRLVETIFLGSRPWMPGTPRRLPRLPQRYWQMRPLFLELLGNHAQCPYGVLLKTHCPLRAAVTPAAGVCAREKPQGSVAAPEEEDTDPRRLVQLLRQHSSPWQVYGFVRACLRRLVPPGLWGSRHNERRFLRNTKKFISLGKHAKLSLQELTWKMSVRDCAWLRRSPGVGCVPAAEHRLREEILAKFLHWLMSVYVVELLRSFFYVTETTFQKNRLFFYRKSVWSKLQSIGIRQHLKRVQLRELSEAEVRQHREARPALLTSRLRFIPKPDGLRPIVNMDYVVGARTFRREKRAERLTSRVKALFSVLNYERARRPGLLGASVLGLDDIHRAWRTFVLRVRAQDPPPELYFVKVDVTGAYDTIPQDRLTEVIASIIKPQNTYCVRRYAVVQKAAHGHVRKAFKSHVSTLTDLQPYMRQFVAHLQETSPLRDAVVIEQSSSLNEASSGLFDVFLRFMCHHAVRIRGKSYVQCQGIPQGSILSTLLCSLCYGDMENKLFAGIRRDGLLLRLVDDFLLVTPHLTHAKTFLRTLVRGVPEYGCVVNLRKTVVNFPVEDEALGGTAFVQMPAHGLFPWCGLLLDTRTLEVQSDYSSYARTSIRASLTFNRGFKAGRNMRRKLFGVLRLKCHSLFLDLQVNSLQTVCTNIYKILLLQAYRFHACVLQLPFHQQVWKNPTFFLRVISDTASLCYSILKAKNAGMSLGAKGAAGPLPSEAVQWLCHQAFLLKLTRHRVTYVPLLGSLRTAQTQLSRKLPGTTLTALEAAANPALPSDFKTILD
telomerase, sequence (O60832 2-514 partner limits assumed): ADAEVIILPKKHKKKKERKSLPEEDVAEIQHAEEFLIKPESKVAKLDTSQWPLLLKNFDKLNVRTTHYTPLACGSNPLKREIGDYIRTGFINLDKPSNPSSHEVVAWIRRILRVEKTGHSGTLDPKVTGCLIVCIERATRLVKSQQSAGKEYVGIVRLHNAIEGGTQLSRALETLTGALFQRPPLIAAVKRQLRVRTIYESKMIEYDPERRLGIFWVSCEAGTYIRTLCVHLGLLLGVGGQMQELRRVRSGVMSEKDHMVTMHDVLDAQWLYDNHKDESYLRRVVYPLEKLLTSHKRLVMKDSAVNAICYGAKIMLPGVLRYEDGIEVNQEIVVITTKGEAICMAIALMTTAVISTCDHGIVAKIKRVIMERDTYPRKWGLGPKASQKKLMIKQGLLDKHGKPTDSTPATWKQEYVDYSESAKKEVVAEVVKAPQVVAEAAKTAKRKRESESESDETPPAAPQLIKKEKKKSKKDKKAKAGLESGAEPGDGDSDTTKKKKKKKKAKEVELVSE
telomerase, sequence (Q9NPE3 whole entry partner): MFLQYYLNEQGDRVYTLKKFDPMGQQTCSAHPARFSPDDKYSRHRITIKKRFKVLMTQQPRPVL
telomerase, sequence (Q9NX24 whole entry partner): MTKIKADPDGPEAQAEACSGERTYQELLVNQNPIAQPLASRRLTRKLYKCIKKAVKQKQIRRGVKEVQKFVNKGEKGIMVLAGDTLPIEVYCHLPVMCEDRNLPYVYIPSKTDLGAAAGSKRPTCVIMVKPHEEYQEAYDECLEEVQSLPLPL
telomerase, sequence (Q9NY12 whole entry partner): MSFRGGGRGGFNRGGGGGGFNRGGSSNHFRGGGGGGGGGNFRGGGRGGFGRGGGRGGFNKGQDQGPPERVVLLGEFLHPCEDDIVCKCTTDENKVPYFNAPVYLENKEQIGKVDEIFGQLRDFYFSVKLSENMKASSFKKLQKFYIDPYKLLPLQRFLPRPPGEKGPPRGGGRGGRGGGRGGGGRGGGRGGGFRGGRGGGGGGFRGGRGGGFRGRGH
telomerase, sequence (Q9BUR4 whole entry partner): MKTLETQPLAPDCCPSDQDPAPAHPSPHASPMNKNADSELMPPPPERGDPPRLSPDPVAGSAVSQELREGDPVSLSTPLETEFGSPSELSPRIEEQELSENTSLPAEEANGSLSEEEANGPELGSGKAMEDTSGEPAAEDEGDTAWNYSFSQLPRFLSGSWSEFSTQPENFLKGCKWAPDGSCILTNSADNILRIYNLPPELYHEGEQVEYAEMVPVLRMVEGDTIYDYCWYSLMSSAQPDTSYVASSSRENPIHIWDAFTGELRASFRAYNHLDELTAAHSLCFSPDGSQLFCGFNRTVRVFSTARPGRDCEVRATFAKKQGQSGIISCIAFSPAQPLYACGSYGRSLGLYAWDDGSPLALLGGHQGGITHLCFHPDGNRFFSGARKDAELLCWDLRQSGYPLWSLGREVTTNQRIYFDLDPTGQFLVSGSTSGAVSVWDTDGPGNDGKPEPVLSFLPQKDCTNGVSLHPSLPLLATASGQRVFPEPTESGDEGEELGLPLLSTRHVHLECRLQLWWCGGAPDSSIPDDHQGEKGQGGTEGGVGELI

B1: GSE 24.2: 165-pb cDNA fragment (nucleotides 268 to 433) of human dyskerin, SEQ ID NO1, encoding peptide SEQ ID NO2, expressed from pLNCX plasmid (nucleic acid, listed as Homo sapiens)
DNA: GGTTTCATTAATCTTGACAAGCCCTCTAACCCCTCTTCCCATGAGGTGGTAGCCTGGATTCGACGGATACTTCGGGTGGAGAAGACAGGGCACAGTGGTACTCTGGATCCCAAGGTGACTGGTTGTTTAATCGTGTGCATAGAACGAGCCACTCGCTTGGTGAAG
modifications: expressed from pLNCX plasmid; CDS (1)..(165) Sequence GSE 24.2
293T cells
  cell viability in response to Inhibitor of Telomerase I: more resistant to the inhibitor of telomerase I
293T cells; listed as 24.2
  cell viability in response to Inhibitor of Telomerase I: increases viability
telomerase
  inhibition of telomerase activity by cisplatin in 24.2 cell line: no inhibition was observed

Source: US9587002B2, “Sequence of nucleotides and peptides GSE 24.2 of dyskerin, which can induce telomerase activity, method for obtaining same, therapeutic compositions and applications thereof” (CONSEJO SUPERIOR DE INVESTIGACIONES CIENTIFICAS, priority 2005, dated 2017)
